Measurements published in article PMC7866087, “Evaluation of Computationally Designed Peptides against TWEAK, a Cytokine of the Tumour Necrosis Factor Ligand Family” (International Journal of Molecular Sciences, 2021).

System: TWEAK-Fn14 signalling pathway, BRV5 cells
Test: Cell-based screening of individual peptides, gene expression microarray in TWEAK-stimulated BRV5 cells
Design: species or system human
Settings: for BIRC2 expression Z-Score / HSP90B1 expression Z-Score / IL6 expression Z-Score / JUN expression Z-Score / MAP4K4 expression Z-Score / MAPK14 expression Z-Score / NFKB2 expression Z-Score / TNFRSF12A expression Z-Score / TRAF2 expression Z-Score: normalized to NARS2
Method in brief: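 Serum-starved BRV5 cells were treated with individual peptides at 450 µM, given once or re-dosed hourly, every two hours or every three hours, with or without TWEAK at 25 ng/mL. RNA was harvested after 6 h, and expression of TWEAK-Fn14 downstream genes plus two housekeeping genes was quantified by Fluidigm EvaGreen qPCR as Ct and delta Ct values.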

[1] = TWEAK control T, BRV5, 6 h, replicate column 3
[2] = TWEAK control T, BRV5, 6 h, replicate column 4
[3] = individual peptides, BRV5 + TWEAK, 450 µM, 6 h, mean of replicate columns
[4] = individual peptides, BRV5 + TWEAK, 450 µM, 6 h, replicate column 1
[5] = individual peptides, BRV5 + TWEAK, 450 µM, 6 h, replicate column 2
[6] = individual peptides, BRV5 + TWEAK, 6 h
[7] = individual peptides, BRV5 + TWEAK, 6 h, listed as T

B1: tumour necrosis factor-like weak inducer of apoptosis (protein, UniProt O43508 94-249, looked up)
Tumor necrosis factor ligand …: SAPKGRKTRARRAIAAHYEVHPRPGQDGAQAGVDGTVSGWEEARINSSSPLRYNRQIGEFIVTRAGLYYLYCQVHFDEGKAVYLKLDLLVDGVLALRCLEEFSATAASSLGPQLRLCQVSGLLALRPGSSLRIRTLPWAHLKAAPFLTYFGLFQVH
- BIRC2 mRNA expression (normalized to NARS2) [1]: 1.027
- HSP90B1 mRNA expression (normalized to NARS2) [1]: 3.037
- JUN mRNA expression (normalized to NARS2) [1]: 0.03535
- MAP4K4 mRNA expression (normalized to NARS2) [1]: 0.2587
- MAPK14 mRNA expression (normalized to NARS2) [1]: 0.3748
- NFKB2 mRNA expression (normalized to NARS2) [1]: 0.06251
- TNFRSF12A mRNA expression (normalized to NARS2) [1]: 0.03969
- TRAF2 mRNA expression (normalized to NARS2) [1]: 0.07995
- BIRC2 mRNA expression (normalized to NARS2) [2]: 1.011
- HSP90B1 mRNA expression (normalized to NARS2) [2]: 2.84
- JUN mRNA expression (normalized to NARS2) [2]: 0.03216
- MAP4K4 mRNA expression (normalized to NARS2) [2]: 0.2342
- MAPK14 mRNA expression (normalized to NARS2) [2]: 0.332
- NFKB2 mRNA expression (normalized to NARS2) [2]: 0.06133
- TNFRSF12A mRNA expression (normalized to NARS2) [2]: 0.03763
- TRAF2 mRNA expression (normalized to NARS2) [2]: 0.08704
- BIRC2 mRNA expression (normalized to NARS2) [3]: 0.9889
- HSP90B1 mRNA expression (normalized to NARS2) [3]: 2.734
- IL6 mRNA expression (normalized to NARS2) [3]: 0.00008785
- JUN mRNA expression (normalized to NARS2) [3]: 0.02837
- MAP4K4 mRNA expression (normalized to NARS2) [3]: 0.2098
- MAPK14 mRNA expression (normalized to NARS2) [3]: 0.3339
- NFKB2 mRNA expression (normalized to NARS2) [3]: 0.05526
- TNFRSF12A mRNA expression (normalized to NARS2) [3]: 0.03637
- TRAF2 mRNA expression (normalized to NARS2) [3]: 0.06681
- BIRC2 mRNA expression (normalized to NARS2) [4]: 0.9782
- HSP90B1 mRNA expression (normalized to NARS2) [4]: 2.649
- IL6 mRNA expression (normalized to NARS2) [4]: 0.0001501
- JUN mRNA expression (normalized to NARS2) [4]: 0.02253
- MAP4K4 mRNA expression (normalized to NARS2) [4]: 0.1844
- MAPK14 mRNA expression (normalized to NARS2) [4]: 0.3328
- NFKB2 mRNA expression (normalized to NARS2) [4]: 0.05313
- TNFRSF12A mRNA expression (normalized to NARS2) [4]: 0.03435
- TRAF2 mRNA expression (normalized to NARS2) [4]: 0.05236
- BIRC2 mRNA expression (normalized to NARS2) [5]: 0.9396
- HSP90B1 mRNA expression (normalized to NARS2) [5]: 2.412
- IL6 mRNA expression (normalized to NARS2) [5]: 0.00002557
- JUN mRNA expression (normalized to NARS2) [5]: 0.02345
- MAP4K4 mRNA expression (normalized to NARS2) [5]: 0.162
- MAPK14 mRNA expression (normalized to NARS2) [5]: 0.2958
- NFKB2 mRNA expression (normalized to NARS2) [5]: 0.04407
- TNFRSF12A mRNA expression (normalized to NARS2) [5]: 0.03379
- TRAF2 mRNA expression (normalized to NARS2) [5]: 0.04788
- BIRC2 expression Z-Score [6]: 2.98
- HSP90B1 expression Z-Score [6]: 0.8798
- IL6 expression Z-Score [6]: -1.558
- JUN expression Z-Score [6]: -0.7938
- MAP4K4 expression Z-Score [6]: 0.6195
- MAPK14 expression Z-Score [6]: 2.332
- NFKB2 expression Z-Score [6]: 1.408
- TNFRSF12A expression Z-Score [6]: 1.8
- TRAF2 expression Z-Score [6]: 2.292
- BIRC2 expression Z-Score [7]: 2.9803
- HSP90B1 expression Z-Score [7]: 0.8798
- IL6 expression Z-Score [7]: -1.5585
- JUN expression Z-Score [7]: -0.7938
- MAP4K4 expression Z-Score [7]: 0.6195
- MAPK14 expression Z-Score [7]: 2.3319
- NFKB2 expression Z-Score [7]: 1.4080
- TNFRSF12A expression Z-Score [7]: 1.8000
- TRAF2 expression Z-Score [7]: 2.2919
